Molecular target: the molecule itself
Test: crystal structure; crystals of free human Nudt16 (2.3 Å, with 100 mM MES pH 5.5) and of Nudt16 incubated with 5 mM FAD (2.7 Å); sitting drop at 20°C, 0.2 M ammonium chloride, 20% PEG 3350

B1: human Nudt16 (residues 1-184) (enzyme, UniProt Q96DE0 1-184, looked up)
chain: MAGARRLELGEALALGSGWRHACHALLYAPDPGMLFGRIPLRYAILMQMRFDGRLGFPGGFVDTQDRSLEDGLNRELREELGEAAAAFRVERTDYRSSHVGSGPRVVAHFYAKRLTLEELLAVEAGATRAKDHGLEVLGLVRVPLYTLRDGVGGLPTFLENSFIGSAREQLLEALQDLGLLQSG
notes: Nudt16, human, residues 1-184, cloned into a modified pET28a vector; Seen as a dimer in both crystal forms, free and with FAD; PDB 3COU is the cited search model for molecular replacement; also called free human Nudt16; source: E. coli BL21(DE3), purified (Ni-NTA, UlpI cleavage, heparin column, Sephacryl S-200); not shown: His6, N-terminal, cleaved; yeast SMT3 SUMO, N-terminal, cleaved
binding result: binds
